Key:
[1] = biological target: the molecule itself; assay: SEC; size-exclusion chromatography of purified WceF (Fig. S2); conditions not shown
SDS-PAGE without heating = biological target: the molecule itself; assay: SDS-PAGE without heating
[2] = biological target: the molecule itself; assay: SDS-PAGE without heating; purified HK620TSP and P22TSP in 2% (w/v) SDS, with or without heating for 5 min

B1: Pantoea stewartii WceF (residues 29-736, lacking the Tat signal peptide) (enzyme)
chain: KNTGLALKSVDATAIPKGDVPILTPENVYAMPPQFWQNFQGKLWIGRAGSDARQPGNQIPVFLRDANGNLAQITQPITLNKGNFDQFVKDNAALIANPSHAMALEDSNGQTVFNIPDVSQPGQAAFSQRLAQPAGYQLIGEIPSVDDLRKTRPLFEGAKIKLKSWHPGLEVGGGEFVGSFQPAQDDQGVIFSGDGFHWRRVVDDYNRLSLFDFGAIADGKTDSAPAIKAMYQWSQQSDQPICVQFPAGTFFVTGCDFGEEQRRFFRISGAMVNFGYFPATTIVSDGQSPFVFEVSARWVEISNLIFNGNTDTKPNRQGLLRNTCPGGQFFRGACLRFNNVGGTALSLLDTLDCKIDQWYASACTGDVIQAGWSGQKKGNWDHSTAIELSNFNAQHCKGGKVLNLPRCSQSLIHNGWIEHCDNPGDISNGQWIIDALSLEDCKNPLIAWHSRLNTRQTNLQSGSWIDNSEQGDRWLSAWEMGSTRVESYGVAIDGSLKYNYLTSRWLLENNTSQPVWYELANLYSPTVGDSWEIEVFGQSQFNNGTDSEPLMNLIDGRNTGGRAVIHVQRKKDHAEASWSAEGSSPVLDVRYVAKTDTDTQVFIRLAGWTPSAAIMIKSTAKDRFVTGRCARVDAKMAKATPDSGSHAAPQRFSLHNGKAGVGANEQGDLLLASRALSADNVDTRKPEGFVSVVINGKTVALPYFAIKA
notes: WceF of Pantoea stewartii subsp. stewartii DSM 30176, amplified from genomic DNA; recombinant construct residues 29-736 without the N-terminal 28 amino acids of the Tat signal peptide (the methods say aa 28-736); residues 34-736 resolved in the electron density; His6 tag followed by a TEV site, cleaved off for the purified protein; The forward primer encodes ...ENLYFQG-AKNTGL, so a glycine …
- stoichiometry N [1]: 3

B2: bacteriophage HK620 tailspike protein (natural protein)
chain: DPDQFRAIIESPEGAGHVGYQYRRNTGSTMRMVSDVLDERVSLWDFHCDPSGNVIQPGPNVDSRQYLQAAIDYVSSNGGGTITIPAGYTWYLGSYGVGGIAGHSGIIQLRSNVNLNIEGRIHLSPFFDLKPFQVFVGFDNGDPASSGNLENCHIYGHGVVDFGGYEFGASSQLRNGVAFGRSYNCSVTGITFQNGDVTWAITLGWNGYGSNCYVRKCRFINLVNSSVNADHSTVYVNCPYSGVESCYFSMSSSFARNIACSVELHQHDTFYRGSTVNGYCRGAYVVMHAAEAAGAGSYAYNMQVENNIAVIYGQFVILGSDVTATVSGHLNDVIVSGNIVSIGERAAFSAPFGAFIDIGPDNSGASNVQDIQRVLVTGNSFYAPANITDSAAITLRANLNGCTFIANNFDCRYMVYNAPGTTSPVVQNLVWDKSNVIGGTHANQRAGQNLFDMQFASVVNSTIEVQLSCEDLSMFSCILFPASCQLSYSKITVDSAWTKSMSNTAVFEGNQQAGANVYVSYPATVNLTSYNTQGAVPFFSTDTNYAWVTSAYSLSINENLDFSPPATYTNKANGQLVGVGYNEIGGVRSVSVRLMLQRQV
notes: also called HK620TSP; source: purified
- stoichiometry N (SDS-PAGE without heating): 3

B3: bacteriophage P22 tailspike protein (natural protein)
chain: YDPDQYSIEADKKFKYSVKLSDYPTLQDAASAAVDGLLIDRDYNFYGGETVDFGGKVLTIECKAKFIGDGNLIFTKLGKGSRIAGVFMESTTTPWVIKPWTDDNQWLTDAAAVVATLKQSKTDGYQPTVSDYVKFPGIETLLPPNAKGQNITSTLEIRECIGVEVHRASGLMAGFLFRGCHFCKMVDANNPSGGKDGIITFENLSGDWGKGNYVIGGRTSYGSVSSAQFLRNNGGFERDGGVIGFTSYRAGESGVKTWQGTVGSTTSRNYNLQFRDSVVIYPVWDGFDLGADTDMNPELDRPGDYPITQYPLHQLPLNHLIDNLLVRGALGVGFGMDGKGMYVSNITVEDCAGSGAYLLTHESVFTNIAIIDTNTKDFQANQIYISGACRVNGLRLIGIRSTDGQGLTIDAPNSTVSGITGMVDPSRINVANLAEEGLGNIRANSFGYDSAAIKLRIHKLSKTLDSGALYSHINGGAGSGSAYTQLTAISGSTPDAVSLKVNHKDCRGAEIPFVPDIASDDFIKDSSCFLPYWENNSTSLKALVKKPNGELVRLTLATL
notes: also called P22TSP; source: purified
- stoichiometry N [2]: 3
